Experimental data from patent US20220073617A1 (published 2022).
Read-outs that look alike come from different tables or passages of the source.

Columns and labels:
[1] = target: T1, monovalent hVISTA-ECD (amino acids 32-193 of SEQ ID NO: 1 with a 7xHis tail) (UniProt Q9H7M9 33-193); experiment: SPR; pH 6.0
[2] = target: T1, monovalent hVISTA-ECD (amino acids …); experiment: SPR; pH 6.0; remark: listed apart in the source

T1 sequence (Q9H7M9 other isoform, or with tags, fused parts or gaps): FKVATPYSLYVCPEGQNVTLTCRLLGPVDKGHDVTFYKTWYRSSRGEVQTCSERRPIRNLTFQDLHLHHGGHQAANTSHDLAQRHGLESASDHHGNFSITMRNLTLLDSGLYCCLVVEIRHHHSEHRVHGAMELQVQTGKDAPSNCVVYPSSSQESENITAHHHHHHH

Kd [1]: 4.5 nM | Kd [2]: 4.5 nM
B1: P1-061029.IgG1.3 (antibody, V domains shown)
VH: EVQLVESGGGLVQPGKSLRLSCAASGFTLDDYAMHWVRQAPGKGLEWVSGINWNSANIGYADSVKGRFTISRDNAKNSLYLQMNSLRTEDTALYYCAKVPGYSGGWIDAFDVWGQGTMVTVSS
VL: not shown
